Values quoted from earlier work as cited in article PMC10813008.

Experiments:
His54 = His54 (UniProt position 54, KGSCFHRIIPG); test: NMR; details: not stated (ref 75 studied forms with and without immunosuppressant ligands; the review does not say which form the limit refers to)
His25 = His25 (UniProt position 26, QTCVVHYTGML); test: NMR; details: not stated (ref 75 studied forms with and without immunosuppressant ligands; the review does not say which form the limit refers to)
His61 = His61 (UniProt position 92, RYQMDHGARIF); test: NMR
His81 = His81 (UniProt position 112, NTIVLHHGPLY); test: NMR
His119 = His119 (UniProt position 145, PYVPVHFDASV); test: mass spectrometry
His12 = His12 (UniProt position 38, KFERQHMDSST); test: mass spectrometry
[1] = complex with 3'-cytidine monophosphate (3'-CMP)

Substance: Cyclophilin (cyclophilin A) (not stated (probably Homo sapiens))
- pKa (His54): < 4.2

Substance: FK506 binding protein (FKBP) (not stated (probably Homo sapiens))
- pKa (His25): < 3.6

Substance: Phosphatidylinositol-specific phospholipase C (PI-PLC) (Bacillus cereus)
- pKa (His61): < 3
- pKa (His81): < 3

Substance: Ribonuclease A (RNase A, pancreatic ribonuclease) (Bos taurus)
- pKa (His119; [1]): 7.0
- pKa (His119; free enzyme): 6.3
- pKa (His12; [1]): 7.1
- pKa (His12; free enzyme): 5.8
